Assays:
[1] = biological target: B. burgdorferi N40 spirochetes (low-passage, intact cells); experiment: competition: spirochetes preincubated with unlabeled competitor, then 125I-labeled Dcn
[2] = biological target: Bovine decorin (Dcn) purified from fetal skin (bovine) (UniProt P21793); experiment: competition: Dcn-coated wells preincubated with 200 ng protein, then B. burgdorferi N40; ELISA
[3] = biological target: Bovine decorin (Dcn) purified from fetal skin (bovine) (UniProt P21793); experiment: microtiter wells coated with increasing amounts of Dbps, biotin-labeled Dcn bound for 1 hour

| Substance | percent inhibition of binding of 125I-labeled Dcn [1] [%] | percent inhibition of attachment of B. burgdorferi N40 to Dcn [2] [%] | activity compared with DbpA:549 [3] [%] |
| --- | --- | --- | --- |
| thyroglobulin type II (Sigma) | < 10 | – | – |
| DbpA:C25A (site-directed mutant of DbpA:549) | – | 93 | < 80 |
| aggrecan isolated from bovine cartilage | < 10 | – | – |
| DbpA:549 (recombinant polyhistidine fusion of DbpA of B. burgdorferi strain 297 lacking nine amino terminal residues) | – | 93 | – |
| fibrinogen (KabiVitrium) | < 10 | – | – |
| bovine serum albumin (BSA) (from UniProt P02769) | < 10 | – | – |
| fetuin type IV (Sigma) | < 10 | – | – |

From patent US6312907
